According to article PMC2173848:

Biological target: GST-Ypt1p (S. cerevisiae) (UniProt P01123)
Test: pull-down

Chain of GST-Ypt1p (S. cerevisiae) (P01123 whole entry): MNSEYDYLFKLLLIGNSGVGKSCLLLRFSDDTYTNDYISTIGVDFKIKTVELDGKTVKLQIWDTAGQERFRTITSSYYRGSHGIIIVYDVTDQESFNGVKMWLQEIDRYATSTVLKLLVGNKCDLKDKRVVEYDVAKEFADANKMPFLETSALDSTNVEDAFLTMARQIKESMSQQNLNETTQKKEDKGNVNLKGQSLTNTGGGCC

- fold less binding than with GTP-loaded GST-Ypt1p: > 5 fold
- percent of the complex bound: > 50%
Substance: purified Sec34/35 complex, P40094 1-801; P53271 1-262; Q06096 1-861; P53079 1-417; P53959 1-839
